From patent US20120021995A1 (published 2012)
Numbering of substitutions follows the chain as printed.

B1: 064-40.1C7 (designed binder)
chain: ALQTVCLKGTKVHMKCFLAFTQTKTFHEASEDCISRGGTLSTPQTGSENDALYEYLRQSVGNEAEIWLGLNGWLEGVGWVDMTGARIAYKNWETEITAQPDGGGGVRWENCAVLSGAANGKWFDKRCRDQLPYICQFGIV
notes: on phage
B2: 064-40.2E10 (designed binder)
chain: B1 chain with W73Y, E75D, G104Q, V106C
notes: on phage
B3: 014-42.3C7 (designed binder)
chain: B1 chain with V77Y, G104T, G105W, V106W, R107E
notes: on phage
B4: 064-40.2A10 (designed binder)
chain: B1 chain with W73V, E75Q, G76R, V77G, G104P, V106G, R107E, W108R
notes: on phage
B5: 064-40.1G9 (designed binder)
chain: B1 chain with E75S, G104W, G105A, V106H, R107A
notes: on phage
B6: 029-62.7D10 (designed binder)
chain: B1 chain with W73L, L74A, E75R, G76Q, V77Q, G104K, V106R, R107P, W108R
notes: on phage
B7: 064-40.2G11 (designed binder)
chain: B1 chain with V77A, G104W, G105Q, V106W
notes: on phage
B8: 064-36.1B7 (designed binder)
chain: B1 chain with L74M, E75A, G104R, G105R, V106L, R107P
notes: on phage
B9: 064-40.2D9 (designed binder)
chain: B1 chain with G72W, W73Q, E75Y, G76Y, V77R, G78Y, G104V, V106C, R107M, W108V
notes: on phage
B10: 029-62.4F5 (designed binder)
chain: ALQTVCLKGTKVHMKCFLAFTQTKTFHEASEDCISRGGTLSTPQTGSENDALYEYLRQSVGNEAEIWLGLNIQCSPPLWVDMTGARIAYKNWETEITAQPDGGAVQQQENCAVLSGAANGKWFDKRCRDQLPYICQFGIV
notes: on phage
B11: 014-40.3B2 (designed binder)
chain: B1 chain with W73Y, L74I, V77T, G104S, G105N, V106W, R107A
notes: on phage
B12: 064-40.1E11 (designed binder)
chain: B1 chain with G72W, W73L, L74S, E75L, G76F, V77S, G78P, G104R, W108G
notes: on phage
B13: 064-36.1E12 (designed binder)
chain: B1 chain with W73C, L74T, E75Q, V77Q, G104K, G105K, V106W, R107K
notes: on phage
B14: 014-40.3A3 (designed binder)
chain: B1 chain with W73F, L74M, E75V, V77R, G104S, G105M, V106W, R107P
notes: on phage
B15: 064-36.1E4 (designed binder)
chain: ALQTVCLKGTKVHMKCFLAFTQTKTFHEASEDCISRGGTLSTPQTGSENDALYEYLRQSVGNEAEIWLGLNVLRLAWSWVDMTGARIAYKNWETEITAQPDGGKRNGCENCAVLSGAANGKWFDKRCRDQLPYICQFGIV
notes: on phage
B16: 014-40.3H2 (designed binder)
chain: B10 chain with I72M, Q73V, C74T, S75R, L78Y, A104W, Q106M, Q107S, Q108F
notes: on phage
B17: 064-36.1G4 (designed binder)
chain: B1 chain with G72R, W73C, E75Q, G104R, V106W, R107P
notes: on phage
B18: 029-62.2B3 (designed binder)
chain: B10 chain with I72R, Q73Y, C74H, S75V, P76Q, P77A, A104R, Q106R, Q107P, Q108R
notes: on phage
B19: 064-40.2C7 (designed binder)
chain: B15 chain with V72S, L73Y, A76H, W77Y, S78G, K104R, N106W, G107L, C108G
notes: on phage
B20: 029-61.1A5 (designed binder)
chain: B1 chain with E75M, V77T, G104W, G105W, V106N
notes: on phage
B21: 064-36.1E10 (designed binder)
chain: B1 chain with W73F, E75A, G104W, G105W, V106T
notes: on phage
B22: 064-36.1G10 (designed binder)
chain: B1 chain with W73Y, E75Q, V77S, G104W, G105K, V106T
notes: on phage
B23: 064-36.1E1 (designed binder)
chain: B1 chain with G72I, L74P, E75L, G76R, V77F, G78R, G104F, G105V, V106T, W108K
notes: on phage
B24: 064-99.2H5 (designed binder)
chain: B1 chain with W73L, E75S, G76D, V77W, G78W, G105N, V106Q, R107S, W108R
notes: on phage
B25: 064-21.1A5 (designed binder)
chain: B1 chain with W73F, E75Q, V77N, G104M, G105W, V106D
notes: on phage
B26: 014-40.3E11 (designed binder)
chain: B1 chain with W73Y, E75A, V77Y, G104P, G105S, V106I, R107W, W108R
notes: on phage
B27: 014-40.3B3 (designed binder)
chain: B1 chain with W73Y, L74M, E75S, V77Y, G104M, G105M, V106A
notes: on phage
B28: 029-62.2C5 (designed binder)
chain: B15 chain with L73R, L75M, A76G, W77F, S78H, K104R, R105V, N106A, G107V, C108G
notes: on phage
B29: 064-40.1G11 (designed binder)
chain: B15 chain with L73A, L75W, A76L, W77L, S78K, K104M, R105C, N106K, G107P
notes: on phage
B30: 064-36.1D7 (designed binder)
chain: ALQTVCLKGTKVHMKCFLAFTQTKTFHEASEDCISRGGTLSTPQTGSENDALYEYLRQSVGNEAEIWLGLNVRHWLQLWVDMTGARIAYKNWETEITAQPDGGGWWKGENCAVLSGAANGKWFDKRCRDQLPYICQFGIV
notes: on phage
B31: 064-98.1G6 (designed binder)
chain: B1 chain with E75S, V77Y, G104R, G105V, V106W, R107S
notes: on phage
B32: 014-40.3E9 (designed binder)
chain: B10 chain with I72P, Q73F, C74R, S75V, P77Q, L78W, A104Y, V105G, Q106P, Q107V
notes: on phage
B33: 014-42.3D9 (designed binder)
chain: B1 chain with W73Y, E75A, G104R, V106F
notes: on phage
B34: 014-42.3G8 (designed binder)
chain: B1 chain with E75Q, G104R, V106W, R107P
notes: on phage

The binders below were run against T1, recombinant human TRAIL R1 (DR4)/Fc chimera (human, UniProt O00220 24-239) (assay: phage ELISA on DR4/Fc).
T1 construct: bought (R&D Systems); not shown: Fc of the bought chimera (R&D Systems)
T1 sequence: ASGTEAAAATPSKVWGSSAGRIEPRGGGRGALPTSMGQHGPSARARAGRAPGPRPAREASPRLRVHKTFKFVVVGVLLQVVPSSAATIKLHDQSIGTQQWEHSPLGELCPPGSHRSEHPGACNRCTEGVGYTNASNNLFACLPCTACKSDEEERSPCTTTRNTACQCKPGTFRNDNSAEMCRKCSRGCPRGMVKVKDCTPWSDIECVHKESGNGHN
Method: The remaining overnight culture was used to make a master stock plate by adding 100 μL of 50% glycerol to each well and storing at −80° C. The replica culture plate was grown at 37° C. with shaking at 250 rpm for approximately 2 hrs until the OD₆₀₀ was 0.5-0.7. The wells were then infected with K07 helper phage to 5×10⁹ pfu/mL mixed and incubated at 37° C. for 30 minutes without shaking, then incubated an addition 30 minutes at 37° C. with shaking at 250 rpm. The cultures were then spun down at 2500 rpm and 4° C. for 20 minutes. The supernatants were removed from the wells and the bacterial cell pellets were re-suspended in 500 μL of 2xYT containing 50 μg/mL carbenicillin and 50 μg/mL kanamycin. An air-permeable membrane was placed on the culture block and cells were grown overnight at room temperature with shaking at 250 rpm.
On day 3, cultures were spun down and supernatants containing the phage were blocked with 3% milk/PBS for 1 hr at room temperature. An initial Phage ELISA was performed using 75-100 ng of antigen bound per well. Non-specific binding was measured using 75-100 ng of human IgG1 Fc per well. DR4/Fc antigen (R&D Systems)-coated wells and IgG Fc coated wells were prepared fresh the night before by binding the above amount of antigen diluted in 100 μL of PBS per well. Antigen plates were incubated overnight at 4° C. then for 1 hour at 37° C., washed twice with PBS/0.05% Tween 20 and twice with PBS, and then blocked with 3% milk/PBS for 1 hr at 37° C. prior to the ELISA. Blocked phage were bound to blocked antigen-bound plates for 1 hr then washed twice with 0.05% Tween 20/PBS and then twice more with PBS. A HRP-conjugated anti-M13 secondary antibody diluted in 3% milk/PBS was then applied, with binding for 1 hr and washing as described above. The ELISA signal was developed using 90 μL TMB substrate mix and then stopped with 90 μL 0.2 M sulfuric acid, then ELISA plates were read at 450 nm. […] Secondary ELISA screens were performed similarly to the protocol detailed above.
B1: binds. B2: binds. B3: binds. B4: binds. B5: binds. B6: binds. B7: binds. B8: binds. B9: binds. B10: binds. B11: binds. B12: binds. B13: binds. B14: binds. B15: binds. B16: binds. B17: binds. B18: binds. B19: binds. B20: binds. B21: binds. B22: binds. B23: binds. B24: binds. B25: binds. B26: binds. B27: binds. B28: binds. B29: binds. B30: binds. B31: binds. B32: binds. B33: binds. B34: binds.
